Data as given in publication PMC5898216 (Nature communications, 2015).

T1: PriSL heterodimer (PriS and PriL), recombinant (S. solfataricus, UniProt Q97Z83 1-330; Q9UWW1 1-307)
T1 sequence (looked up) 1: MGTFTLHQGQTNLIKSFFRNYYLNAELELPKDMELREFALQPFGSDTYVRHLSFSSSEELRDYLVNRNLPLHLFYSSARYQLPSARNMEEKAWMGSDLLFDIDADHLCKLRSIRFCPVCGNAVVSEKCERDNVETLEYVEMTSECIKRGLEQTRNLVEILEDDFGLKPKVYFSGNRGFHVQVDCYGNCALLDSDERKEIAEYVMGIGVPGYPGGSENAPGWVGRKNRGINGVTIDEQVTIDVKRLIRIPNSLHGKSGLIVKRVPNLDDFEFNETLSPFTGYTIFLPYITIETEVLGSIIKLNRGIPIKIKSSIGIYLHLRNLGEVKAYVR
T1 sequence (looked up) 2: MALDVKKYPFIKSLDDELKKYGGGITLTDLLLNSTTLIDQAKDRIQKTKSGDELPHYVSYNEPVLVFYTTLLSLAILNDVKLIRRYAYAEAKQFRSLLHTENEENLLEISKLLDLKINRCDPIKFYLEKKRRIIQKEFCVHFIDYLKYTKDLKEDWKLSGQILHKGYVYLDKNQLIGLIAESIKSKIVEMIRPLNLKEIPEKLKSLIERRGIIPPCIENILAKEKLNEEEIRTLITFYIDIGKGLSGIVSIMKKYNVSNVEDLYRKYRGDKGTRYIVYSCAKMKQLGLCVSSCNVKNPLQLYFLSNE

T2: PriS, primase catalytic subunit, recombinant (S. solfataricus, UniProt Q97Z83 1-330)
T2 sequence (looked up): T1 sequence (looked up) 1

B1: PriX (product of Sso0502), recombinant full-length protein (natural protein, S. solfataricus, UniProt Q97ZS7 1-154, looked up)
chain: MSQEKKAKKIILHYPDDTPAGYIEYAEGSSSIYDNEGNFLFKVEGKFPPQPKKSSDYSWIEKVLEMGLQDSRKRFILYVASRYLVNVKGVNEDEALQTLKEFYYKLQSGKVYESWLKSVINGVKKKGLLPWSLKRIEERDKEMYNEIIRVLKNS
B2: PriL, primase large noncatalytic subunit, recombinant (natural protein, S. solfataricus, UniProt Q9UWW1 1-307, looked up)
chain: T1 sequence (looked up) 2

Key:
[1] = target: B2; assay: ITC
[2] = target: T1, PriSL heterodimer (PriS and PriL), …; assay: SEC
[3] = target: T2, PriS, primase catalytic subunit, …; assay: SEC

Row | stoichiometry N [1] | binding result [2] | binding result [3] | Binder
1 | 1 | binds | – | B1
2 | – | – | binds | B2
